In publication PMC7026633:

Molecular target: Flag-tagged phosphor-mutant (AA: S1310A, S1379A) full-length human Tet3 (lentiviral) (human) (UniProt O43151)
Experiment: co-IP; Tet3 KO mouse ESCs stably expressing Flag-tagged Wt or AA human Tet3; lysate in TBST buffer (50 mM Tris-HCl pH 7.4, 150 mM NaCl, 1 mM EDTA, 1% Triton X-100); IP overnight with anti-Flag M2 affinity gel or mouse IgG agarose, washed four times with TBST; blot for FLAG and H2A.Z

Substance: histone variant H2A.Z (endogenous, mouse ESCs) (from UniProt P0C0S6 1-128) (natural protein)
- fold change of H2A.Z pulled down, against wild-type Tet3: 2 fold
